{
  "source": "paper PMC7841792",
  "proteins": {"B1": {"name": "lactate oxidase (LOX, EC 1.1.3.2) (Aerococcus viridans ATCC 11563 = CCUG 4311) (protein)", "chain": "MNNNDIEYNAPSEIKYIDVVNTYDLEEEASKVVPHGGFNYIAGASGDEWTKRANDRAWKHKLLYPRLAQDVEAPDTSTEILGHKIKAPFIMAPIAAHGLAHTTKEAGTARAVSEFGTIMSISAYSGATFEEISEGLNGGPRWFQIYMAKDDQQNRDILDEAKSDGATAIILTADSTVSGNRDRDVKNKFVYPFGMPIVQRYLRGTAEGMSLNNIYGASKQKISPRDIEEIAGHSGLPVFVKGIQHPEDADMAIKRGASGIWVSNHGARQLYEAPGSFDTLPAIAERVNKRVPIVFDSGVRRGEHVAKALASGADVVALGRPVLFGLALGGWQGAYSVLDYFQKDLTRVMQLTGSQNVEDLKGLDLFDNPYGYEY"}},
  "substrate": "C[C@H](O)C(=O)O",
  "assay": "purified protein",
  "conditions": "20 mM HEPES pH 7.4, 50 μM Ampliflu Red, 0.1 U/mL HRP, mean ± SEM, n = 3, lactate enantiomer not given",
  "data": [
    {"protein": "B1", "values": [
      {"measurement": "Km", "value": "1620 ± 480", "unit": "µM"},
      {"measurement": "Vmax", "value": 22, "unit": "µmol/min/mg"}
    ]}
  ]
}
